Data on one molecule can be found in patent publication EP4484441A1 (Eberhard-Karls-Universität Tübingen, dated 2025).

In this experiment the target is T1, polypeptide 10 (human).
T1 construct: The empty single-chain polypeptide as secreted by WEHI-231 cells, about 50 kD; also called MHC-derived polypeptide; single continuous amino acid chain 12
The experiment can be described thus: inferred from peptide-dependent multimer staining of TCR-expressing Jurkat76 cells (flow cytometry).

T1 sequence (chain, as listed by the source limits assumed): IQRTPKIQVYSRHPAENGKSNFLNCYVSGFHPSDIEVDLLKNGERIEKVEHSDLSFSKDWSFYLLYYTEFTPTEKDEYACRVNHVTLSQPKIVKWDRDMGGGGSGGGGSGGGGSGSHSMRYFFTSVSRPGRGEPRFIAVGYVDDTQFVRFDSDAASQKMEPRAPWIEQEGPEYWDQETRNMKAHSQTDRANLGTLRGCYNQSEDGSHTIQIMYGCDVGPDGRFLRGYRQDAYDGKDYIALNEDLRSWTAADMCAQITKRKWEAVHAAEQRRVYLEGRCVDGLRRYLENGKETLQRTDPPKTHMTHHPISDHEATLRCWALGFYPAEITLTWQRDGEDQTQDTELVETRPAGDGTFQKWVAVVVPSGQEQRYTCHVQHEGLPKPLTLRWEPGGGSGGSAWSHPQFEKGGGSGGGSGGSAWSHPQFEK

With LTDLGQNLLY [oligopeptide 26], the binding result was “binds”.
